Earlier results, collected in PMC1087504.

Target: 3 beta-hydroxysteroid dehydrogenase (Bos taurus) (UniProt P14893)
UniProt P14893, sequence (P14893 whole entry): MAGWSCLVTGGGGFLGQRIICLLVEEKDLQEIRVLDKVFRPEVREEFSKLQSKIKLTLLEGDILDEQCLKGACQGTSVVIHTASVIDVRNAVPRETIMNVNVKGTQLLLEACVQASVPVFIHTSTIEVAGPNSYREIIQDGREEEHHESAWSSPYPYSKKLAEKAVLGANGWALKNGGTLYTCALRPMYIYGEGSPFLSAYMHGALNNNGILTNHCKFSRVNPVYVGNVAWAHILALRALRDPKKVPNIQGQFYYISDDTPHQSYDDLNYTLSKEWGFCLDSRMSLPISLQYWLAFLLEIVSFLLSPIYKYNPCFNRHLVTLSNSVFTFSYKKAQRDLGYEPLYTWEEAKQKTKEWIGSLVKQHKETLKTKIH

Kd: 120 nM
Substance: P450scc (from UniProt P00189)
